Test results published in the supplement of paper PMC9170038.

How the values were obtained:
MS2 coat protein [1] = experiment: apparent KD of MS2 coat protein; higher = weaker reporter binding; settings: Eterna round: R101
Experimental: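 RNA-MaP: designed FMN/MS2 RNA switches (84 nt design region) are transcribed on-chip within common flanks and titrated with SNAP-549-labelled MS2 coat protein (about 1-3000 nM) in 100 mM Tris pH 7.5, 80 mM KCl, 4 mM MgCl2, without or with 200 uM FMN. Median apparent KD per design; activation ratio = KD,OFF / KD,ON.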

MS2 coat protein [2] = experiment: apparent KD of MS2 coat protein, switch ON state; designed switch direction (-1 OFF switch, 1 ON switch): 1; higher = weaker reporter binding; settings: FMN input: 0 or 200 uM; Eterna round: R93 (includes R88 designs)
Summary of the method: (§1)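 With or without constant ligand, designed RNA switches in 100 mM Tris-HCl pH 7.5, 80 mM KCl and 4 mM MgCl2 were titrated with SNAP-549-labelled MS2 coat protein. Concentrations went up in twofold steps from 0.7 or 1.5 nM to 3 µM. The switches had been transcribed on-chip from Illumina sequencing clusters, and apparent KD is the per-design median of normalised cluster binding-curve fits.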

MS2 coat protein [3] = experiment: apparent KD of MS2 coat protein, switch OFF state (with FMN for OFF switches, without FMN for ON switches); designed switch direction (-1 OFF switch, 1 ON switch): 1; higher = weaker reporter binding; settings: FMN input: 0 or 200 uM; Eterna round: R93 (includes R88 designs)
Summary of the method: as §1

Sequence	apparent KD of MS2 coat protein (MS2 coat protein [1]; input ligand: FMN 200 uM) [nM]	apparent KD of MS2 coat protein (MS2 coat protein [1]; input ligand: none) [nM]	apparent KD of MS2 coat protein (MS2 coat protein [2]) [nM]	apparent KD of MS2 coat protein (MS2 coat protein [3]) [nM]
AAAUAAUCCUUAGGAUAUGACUCCGAAACGGAGUCAGAAGGGAGGAUCACCCUCUUCAGCUCAGCGUCGAAAGACGCUGAGCAA [#SharedSequence ExNG1 - 22] (puzzle (switch architecture): Exclusion NG 1)	200	72.8		
GGUCGACUUCAAGGAUAUGGACUGCAAAGCAGUCCAGAAGGUGAGGAUCACCCAUCUACGGUCAGGAAACUGACCGAUCGACCA [#SharedSequence - ExNG1-8] (puzzle (switch architecture): Exclusion NG 1)	117	86.2		
CCCGGUGACUAGAAGGCGCCACAUGAGGAUCACCCAUGUAUCAAAGACCGGUGAUUGCCGACGGGCGAGGAUAUAGGUGCGACG [EternaBot1154] (puzzle (switch architecture): Inverted Exclusion NG 2)		8.19		
GGAGAUACAUGAGGAUCACCCAUGUAGGAUAUCGGGCCCGGGCCCGGCGAAAGCCGGGCCCGGGCCGAGAAGGGCGUACACACC [#LOL-2] (puzzle (switch architecture): Small Loop Exclusion NG 3)	5.79	7.3		
CGGGAUAUGAAGGGCGAAAGCCCACAUGAGGAUCACCCAUGUAGAAGGCGGGCCGCAACGCGGCCCGAGGAUAUACAAUAUCCA [#my 7th design] (puzzle (switch architecture): Inverted Exclusion NG 3)	13.1	9.05		
GGAUAGGACAGAGGAUAUACGUGCUAGAGAUACUAGCAAAAUUUCCUCACAUGAGGAUCACCCAUGUAGAAGGCUGUCCUAUCG (puzzle (switch architecture): Exclusion NG 2)	415	15.7		
UAAUAUAUAUAGAAGGACAUGAGGAUCACCCAUGUCGCCGGGCCCGGGAAACCGGGCCCGGCCAUGUAGGAUAUAUAUAUAUUA [#This is a good prank 10] (puzzle (switch architecture): Inverted Exclusion NG 2)	5.17	4.9		
GGAGAUACAUGAGGAUCACCCAUGUAGGAUAUAUAGUAUAUAUAUAUUGAAAGGUAUAUAUAUAUAUAGAAGGGCGUGCACACC [#LOL-18] (puzzle (switch architecture): Small Loop Exclusion NG 3)	6.73	9.07		
AGACCUGCUCAGAAGGAGAGUGCGAGGCUGGAAACAGCCUCGAACUAGAAACCUAGAGGAUCACCCUAGGAUAUGAGCAGGUCA [#SharedSequence - IExNG2: 10] (puzzle (switch architecture): Inverted Exclusion NG 2)	5.58	5.51		
UUACUCAUGUAAGGAUAUGCAGCCGAAACGGCUGCAGAAGGUACUAUAAUACAUGAGGAUCACCCAUGUAAAAUAUAUAAAGUU (puzzle (switch architecture): Same State NG 1)	18.3	29.3		
AGGAGAAAUGUAGGAUAUGGGCGGGCGGACGGGCAAAGCGCGUCCGCCCGCCCAGAAGGACAUGAGGAUCACCCAUGUUUCCCU [Wow, my 5th design!] (puzzle (switch architecture): Small Loop Exclusion NG 1)	13	12.2		
GACGGACAUGAGGAUCACCCAUGUCGGAAAAGGCAAGGAUAUGGGCGGUACCAAUUUCGGUCAGAAGGUGCAAAAG [Beenedriar]			117	61
ACUACACAUGAGGAUCACCCAUGUCAGGUCGGACUAGGAUAUUAUAAACCAGAGUAAAAAUAAGAAGGAGUAGAAA [JR_SS001_Sub309]			37.9	29.9
GGAGCCGGCACUGAGGAUAUUCAUAUUAAAACAUGAGGAUCACCCAUGUAGGCCAGAAGGCCUUGGGAGAAGGCAGGUCGGCCCG [Bibimaor]			18.5	252
GAAAAACAUGAGGAUCACCCAUGUAGAAAUAUGGGAGGAUAUACAAAGACGGAAGUCAAAGUAGAAGGCCUAAAAG [Mat - Same State 1 - Eli mod - D7]			27.9	71.2
AACAAACAUGAGGAUCACCCAUGUAAACAAACAUGAGGAUAUAUAACACAACAUCAACAGAUAGAAGGCAUAAAUA [JR_SS001_Sub1202]			92.1	84.8
AAGACACAUGAGGAUCACCCAUGUCAAGAGAGAUGAGGAUAUCUGAGUUAGUUAAGUUAAGGAGAAGGCAUGAAAA [LROPPY Same State 1 - v01_deltaG=3.81]			31	59.4
CUGGACAUAGUACAGGAUAUAUGAAUAGUCACAUGAGGAUCACCCAUGUGCAUUUAUAUGCGCACAUAGAAGGGUGGUAGUUAAG [Mat - Same state - Malcolm Mod - D140]			180	57.9
AAAACACAUGAGGAUCACCCAUGUAAAAACAAGGGAGGAUAUGCUUGGAAAACAUGCUAUGCAGAAGGCUCAAGUG [SS1 - 11]			42.9	31.1

Sequence	apparent KD of MS2 coat protein (MS2 coat protein [1]; input ligand: FMN 200 uM) [nM]	apparent KD of MS2 coat protein (MS2 coat protein [1]; input ligand: none) [nM]	apparent KD of MS2 coat protein (MS2 coat protein [2]) [nM]	apparent KD of MS2 coat protein (MS2 coat protein [3]) [nM]
AACAAUCUAUCUGAGGAUAUGUGUCGAAAGACAUGAGGAUCACCCAUGUGAAAACAUGAAAAAUCACAGAAGGCAGAUAGAUUGA [SS2: 1143]			45.8	146
AAAUAAAUGACUCAGGAUAUAUCAUAGAAUACAUGAGGAUCACCCAUGUUUUAAUAACAUGUUUGGUAGAAGGGAGUCAAUAAAU [LROPPY Same State 2 - v05_deltaG=1.86]			25.9	116
AUAAAACAUGAGGAUCACCCAUGUAGAAAUAUGGGAGGAUAUACUAGAUCGAAAGAUCUAGUAGAAGGCCUAAAAG [JL Mod of Eli 1]			27.6	60.7
CAGAAGGAGAGAGAGGAUAUCCAAAGGAAAACAUGAGGAUCACCCAUGUAAAAGGUAGGAAAUUGGGAGAAGGCUCAAGAGAGAG [salish99-ss2-110]			33.2	33.3
AGCCAACAUGAGGAUCACCCAUGUCAAACAAGUCAAGGAUAUGGGCCUCUAAAAGGAGUACCAGAAGGUGAGAAAU [Vequatge]			123	52.6
AGAAUAAAAAGACAGGAUAUCCAAAAUAAAACAUGAGGAUCACCCAUGUAAAAAAAAUAAAAAUGGGAGAAGGGUCAAAAUAAGA [Mat - Same State 2 - JL mod - D63]			18.8	31.9
GAAAAACAUGAGGAUCACCCAUGUAAAAAAAUGGGAGGAUAUACAAAGACGAAAGUCAAAGUAGAAGGCCUGAAAG [same state 2]			18	81.8
ACAAACAAAAAAGAGGAUAUCCUAAAUAAAACAUGAGGAUCACCCAUGUAAAAAAUAAUAAAAUGGGAGAAGGCUUACAACAAAC [SS2 M 24]			15.6	21
AUAAAAUAAAGGGAGGAUAUCUAUAAUAAAACAUGAGGAUCACCCAUGUUAAAAAGAAGAUCAUGGGAGAAGGCCUAAAAUAAAU [SS2 M 30]			37.9	46.1
AAACCACAUGAGGAUCACCCAUGUAGAAAUAUGGGAGGAUAUACGAAGACGAAAGUCAAAGUAGAAGGCCUAAAAG [saturn 1]			24.5	72.4
UAAUAAUAAACCAAGGAUAUGGAGUUUCCAACAUGAGGAUCACCCAUGUUUAGCAUGAAAUCGAACCAGAAGGUGGAGCCAAAUA [JR_SS002_Sub1004]			10.8	42.5
AACAAUCUAUCUGAGGAUAUGUGUCGAAAGACAUGAGGAUCACCCAUGUCAAAACAUGGGAAGAUACAGAAGGCAGAUAGAUUGA [SS2: 1159]			79.9	417
AGAAAACAUGAGGAUCACCCAUGUGAUAACAUGGGAGGAUAUACGAGGACGAGAGUCAAGGUAGAAGGCCUAAAGA [Garnet 72]			111	114
GUCAGGAAGAGAGAGGAUAUCCAAAGGAAAACAUGAGGAUCACCCAUGUAAAAGGUAGGAAAUUGGGAGAAGGCUCAAGAGAGAG [salish99-ss2-095]			31.5	48.8
GAAAAACAUGAGGAUCACCCAUGUAAGAUAAACACAGGAUAUGCGAAAAGAAACAAAGAAGCAGAAGGGUGAAGAA [Mat - Same State 1 - Tesla mod - 46]			18	30.2
CAGAGACAUGAGGAUCACCCAUGUAGGAUUAUGGGAGGAUAUACAAAGACGAGAGUCAGAGUAGAAGGCCUAGGAU [salish99-ss1-142]			21.2	52.7
AAAAGACAUGAGGAUCACCCAUGUAAAAACAUGGGAGGAUAUGCAUGGAAAACAUGCUGUGCAGAAGGCUCAUGUC [SS1 - 18]			40	25.5
GAAAAACAUGAGGAUCACCCAUGUGUAAAUAUGGAAGGAUAUACAAAGACGGAAGUCAAAGUAGAAGGUCUAAAAG [Mat - Same State 1 - Eli mod - D18]			24.5	30.3
AACAAUCUAUCUGAGGAUAUCAUAUAAAAGACAUGAGGAUCACCCAUGUAGCAGGAAACUGCAUAUGAGAAGGCAGAUAGAUUGA [SS2: 1121]			7.5	10.8
